The source of these data is patent publication US20250368754A1 (KANAPH THERAPEUTICS, published 2025).

Where only a bound is given, the exact number is not on record here.

One experiment concerns the target human LTβR on A375 cells (human, UniProt P36941 31-435). Put plainly: cell-based or functional assay.
Experiment [1] has as its target T1, human FAP on HEK293-hFAP cells (human, UniProt Q12884 1-760).
T1 construct: whole, on cells; also called human FAP-expressing cell line
T1 sequence (looked up): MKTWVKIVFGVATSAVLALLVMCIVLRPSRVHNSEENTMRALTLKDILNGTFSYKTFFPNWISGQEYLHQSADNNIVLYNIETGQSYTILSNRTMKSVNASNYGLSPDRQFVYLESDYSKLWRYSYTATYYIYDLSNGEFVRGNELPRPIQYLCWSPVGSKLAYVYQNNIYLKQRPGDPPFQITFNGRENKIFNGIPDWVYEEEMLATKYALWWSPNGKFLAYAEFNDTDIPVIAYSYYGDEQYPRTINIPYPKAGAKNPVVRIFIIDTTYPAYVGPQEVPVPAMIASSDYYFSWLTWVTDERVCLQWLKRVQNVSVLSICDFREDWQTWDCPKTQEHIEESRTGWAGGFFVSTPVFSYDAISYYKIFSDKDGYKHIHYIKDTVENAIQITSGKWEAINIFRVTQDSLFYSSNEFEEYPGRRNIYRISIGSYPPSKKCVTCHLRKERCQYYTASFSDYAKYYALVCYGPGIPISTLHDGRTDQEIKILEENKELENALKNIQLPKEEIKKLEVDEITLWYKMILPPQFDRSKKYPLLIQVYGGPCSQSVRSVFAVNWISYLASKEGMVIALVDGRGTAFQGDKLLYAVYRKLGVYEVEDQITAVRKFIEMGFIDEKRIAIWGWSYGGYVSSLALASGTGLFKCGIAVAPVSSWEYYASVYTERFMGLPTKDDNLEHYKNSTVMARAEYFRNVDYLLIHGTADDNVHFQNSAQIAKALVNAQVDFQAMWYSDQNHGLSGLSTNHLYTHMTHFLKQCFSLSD
The experiment in a line: flow cytometry on HEK293-hFAP cells, 1 µg protein, anti-human IgG detection. In short, it runs like this:
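HEK293-hFAP cells, 1×10⁵ per 100 μL FACS buffer, incubated with 1 μg antibody, washed twice, then stained with anti-human IgG. Negative control received secondary antibody only. Stained-cell ratio measured by flow cytometry.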
In general terms: A flow cytometer gives signals particle by particle.

The target of a further experiment is T2, human DcR3 (human, UniProt O95407 30-300).
T2 construct: also called LIGHT receptor DcR3
T2 sequence (looked up): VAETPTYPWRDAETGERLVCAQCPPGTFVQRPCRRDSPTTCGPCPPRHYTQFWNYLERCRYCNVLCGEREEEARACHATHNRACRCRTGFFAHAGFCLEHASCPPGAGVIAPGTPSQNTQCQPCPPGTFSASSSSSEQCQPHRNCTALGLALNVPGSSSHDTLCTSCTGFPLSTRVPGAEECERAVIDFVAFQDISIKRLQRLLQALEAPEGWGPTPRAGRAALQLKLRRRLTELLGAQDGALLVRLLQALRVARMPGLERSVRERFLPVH
The experiment in a line: SPR, human DcR3 immobilised on CM5, fusion protein as analyte, 1:1 binding model. As for the experimental part: Specifically, the surface of the CM5 chip was activated with a 1:1 mixture of […], and 5 to 6 μg/mL of human DcR3 was immobilized for 60 seconds at a rate of 10 μL/min. The remaining active ester groups were blocked with 1 M ethanolamine. T3.01, T3.07, T3.09, T3.14, and T3.18 were each diluted to 50 nM or 200 nM in 1×HBS-EP+buffer solution and diluted by serial dilution. The diluted fusion proteins were reacted at a rate of 30 μL/min. The association and dissociation times were 180 seconds and 400 seconds, respectively. After the dissociation step, stabilization was performed for 60 seconds, and then the regeneration step was performed for 30 seconds with a 10 mM glycine pH 1.5 solution at a rate of 30 μL/min.
In general terms: Surface plasmon resonance follows binding to a sensor surface in real time, without labels.

The next experiment has as its target T3, recombinant human FAP (human, UniProt Q12884 26-760).
T3 construct: also called rhFAP
T3 sequence (looked up): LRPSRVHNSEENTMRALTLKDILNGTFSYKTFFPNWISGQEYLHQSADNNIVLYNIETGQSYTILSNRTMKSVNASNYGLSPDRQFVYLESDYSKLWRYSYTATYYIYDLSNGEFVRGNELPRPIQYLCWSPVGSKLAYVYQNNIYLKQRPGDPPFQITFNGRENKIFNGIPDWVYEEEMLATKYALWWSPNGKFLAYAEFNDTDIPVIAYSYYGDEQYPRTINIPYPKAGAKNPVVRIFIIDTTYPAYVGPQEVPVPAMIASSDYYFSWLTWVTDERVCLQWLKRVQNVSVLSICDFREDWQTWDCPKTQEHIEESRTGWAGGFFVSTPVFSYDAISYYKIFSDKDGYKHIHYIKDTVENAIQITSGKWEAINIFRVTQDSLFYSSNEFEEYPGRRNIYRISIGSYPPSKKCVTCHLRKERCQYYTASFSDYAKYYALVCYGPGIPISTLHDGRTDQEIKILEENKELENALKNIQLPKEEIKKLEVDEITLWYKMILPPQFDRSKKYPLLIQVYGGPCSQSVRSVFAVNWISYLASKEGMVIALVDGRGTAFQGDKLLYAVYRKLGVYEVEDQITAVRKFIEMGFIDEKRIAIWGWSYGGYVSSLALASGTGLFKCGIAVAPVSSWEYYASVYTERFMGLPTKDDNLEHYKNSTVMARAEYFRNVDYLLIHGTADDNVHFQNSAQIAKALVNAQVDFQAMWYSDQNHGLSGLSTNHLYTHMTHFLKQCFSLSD
Put plainly: SPR, fusion protein captured by anti-human IgG (Fc) on CM5, recombinant human FAP as analyte, 1:1 binding model. As for the experimental part: Specifically, the surface of the CM5 chip was activated with a 1:1 mixture of […] NHS (N-hydroxysuccinimide) and 200 nM EDC (1-ethyl-3-(3-dimethylaminopropyl)carbodiimide), and 20 μg/mL of anti-human IgG (Fc) antibody was immobilized for 400 seconds at a rate of 10 μL/min. The remaining active ester groups were blocked with 1 M ethanolamine. T3.01, T3.07, and T3.14 were diluted to 2 μg/mL, 1 μg/mL, and 2 μg/mL, respectively, and reacted on the CM5 chip immobilized with the anti-human IgG (Fc) antibody. The recombinant human FAP was diluted to 50 nM or 100 nM in 1×HBS-EP+buffer solution and diluted by serial dilution. The diluted recombinant human FAP was reacted at a rate of 30 μL/min. The association and dissociation times were 180 seconds and 400 seconds, respectively. After the dissociation step, stabilization was performed for 60 seconds, and then the regeneration step was performed for 30 seconds with a 10 mM glycine pH 1.5 solution at a rate of 30 μL/min.

human LTβR on A375 cells, sequence (P36941 31-435): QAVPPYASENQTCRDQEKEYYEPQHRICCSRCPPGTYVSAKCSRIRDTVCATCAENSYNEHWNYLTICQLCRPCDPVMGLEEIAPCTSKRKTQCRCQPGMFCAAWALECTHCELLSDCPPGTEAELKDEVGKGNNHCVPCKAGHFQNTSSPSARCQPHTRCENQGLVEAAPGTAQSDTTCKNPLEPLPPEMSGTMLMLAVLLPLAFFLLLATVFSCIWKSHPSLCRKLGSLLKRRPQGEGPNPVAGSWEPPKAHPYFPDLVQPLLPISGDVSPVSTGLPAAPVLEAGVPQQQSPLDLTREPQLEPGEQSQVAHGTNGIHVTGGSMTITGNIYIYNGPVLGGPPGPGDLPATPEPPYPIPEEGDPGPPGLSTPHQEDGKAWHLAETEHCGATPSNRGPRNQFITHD

B1: T3.01 (anti-hu FAP/hu scLIGHT3, hu IgG1 DANG) (bispecific antibody)
heavy: QVQLVQSGAEVKKPGASVKVSCKTSRYTFTEYTIHWVRQAPGQRLEWIGGINPNNGIPNYNQKFKGRVTITVDTSASTAYMELSSLRSEDTAVYYCARRRIAYGYDEGHAMDYWGQGTLVTVSSASTKGPSVFPLAPSSKSTSGGTAALGCLVKDYFPEPVTVSWNSGALTSGVHTFPAVLQSSGLYSLSSVVTVPSSSLGTQTYICNVNHKPSNTKVDKKVEPKSCDKTHTCPPCPAPELLGGPSVFLFPPKPKDTLMISRTPEVTCVVVAVSHEDPEVKFNWYVDGVEVHNAKTKPREEQYGSTYRVVSVLTVLHQDWLNGKEYKCKVSNKALPAPIEKTISKAKGQPREPQVYTLPPSRDELTKNQVSLWCLVKGFYPSDIAVEWESNGQPENNYKTTPPVLDSDGSFFLYSKLTVDKSRWQQGNVFSCSVMHEALHNHYTQKSLSLSPGK
light: not shown
chain: not shown
notes: Knob-into-hole heterodimer: one anti-FAP Fab arm and one single-chain human LIGHT (91-240) homotrimer arm
Turning to B1, in the experiment with human LTβR on A375 cells, the “IL-8 secretion of A375 cells, EC50 (FIG. 15a)” value is 0.0368 nM and the “IL-8 secretion of A375 cells, EC50 (FIG. 15b)” value is 0.0469 nM. Besides, the “percent of cells bound” value in experiment [1] was no less than 99%. Also, in the experiment with human DcR3, binding was characterised by a dissociation constant (Kd) of 0.357 nM, the koff is 0.000236 s⁻¹ and the kon stood at 662000 M⁻¹ s⁻¹. In addition, in the experiment with recombinant human FAP, the Kd worked out at 0.0364 nM, the koff came out at 3.89e-06 s⁻¹ and the kon is 107000 M⁻¹ s⁻¹.

B2: T3.14 (anti-hu FAP/hu scLIGHT-LTb2, hu IgG1 DANG) (bispecific antibody)
heavy: B1 heavy
light: not shown
chain: not shown
notes: Knob-into-hole; single-chain heterotrimer of one human LIGHT and two human lymphotoxin beta (87-243)
Consider B2, for which the “IL-8 secretion of A375 cells, EC50 (FIG. 15a)” value with human LTβR on A375 cells turned out to be 0.0558 nM. The “percent of cells bound” value in experiment [1] is no less than 99%. In the experiment with human DcR3, the affinity, expressed as Kd, was 9.72 nM; the koff amounted to 0.00198 s⁻¹; the on-rate (kon) was found to be 204000 M⁻¹ s⁻¹. In the experiment with recombinant human FAP, the Kd was 0.0123 nM, the koff was 1.53e-06 s⁻¹ and the kon is 124000 M⁻¹ s⁻¹.

Broadly, the Kd is the free concentration of one partner at which half of the binding sites on the other are occupied at equilibrium, for simple one-to-one binding. A word on the koff: it is a measure of how fast the partners let go of each other. The term kon denotes the rate constant with which the complex forms.
